According to patent US20200249231:

What was measured:
[1] = biological target: T1, YKYKY (5-mer on peptide array)
T1 chain: YKYKY

[2] = biological target: T2, Z-[GGGAYRTKGGGG]
T2 chain: GGGAYRTKGGGG

[3] = biological target: T3, VRYRQ (5-mer on peptide array)
T3 chain: VRYRQ

[4] = biological target: T4, RQRQR (5-mer on peptide array)
T4 chain: RQRQR

[5] = biological target: T5, APRYRQRAA (9-mer on peptide array)
T5 chain: APRYRQRAA

[6] = biological target: T6, YKYAK (5-mer on peptide array)
T6 chain: YKYAK

[7] = biological target: T7, FRQRG (5-mer on peptide array)
T7 chain: FRQRG

[8] = biological target: T8, Z-[GGGQRQRQGGGG]
T8 chain: GGGQRQRQGGGG

[9] = biological target: T9, WQRQR (5-mer on peptide array)
T9 chain: WQRQR

[10] = biological target: T10, YQKWK (5-mer on peptide array)
T10 chain: YQKWK

[11] = biological target: T11, YRYAK (5-mer on peptide array)
T11 chain: YRYAK

[12] = biological target: T12, RYSQR (5-mer on peptide array)
T12 chain: RYSQR

[13] = biological target: T13, Z-[GGGYKYRQGGGG]
T13 chain: GGGYKYRQGGGG

[14] = biological target: T14, RYSYK (5-mer on peptide array)
T14 chain: RYSYK

[15] = biological target: T15, Z-[GGGQYRQRGGGG]
T15 chain: GGGQYRQRGGGG

[16] = biological target: T16, Thermus thermophilus SlyD FKBP domain with S. mobaraensis MTG Q-tag DYALQ instead of RYRQR
T16 chain: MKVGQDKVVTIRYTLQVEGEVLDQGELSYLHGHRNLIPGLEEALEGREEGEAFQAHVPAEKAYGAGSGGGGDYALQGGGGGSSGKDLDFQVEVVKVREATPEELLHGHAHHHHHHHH

[17] = biological target: T17, Z-[GGGYRYRQGGGG]
T17 chain: GGGYRYRQGGGG

[18] = biological target: T18, Z-[GGGARSKLGGGG]
T18 chain: GGGARSKLGGGG

[19] = biological target: T19, Z-[GGGFRQRQGGGG]
T19 chain: GGGFRQRQGGGG

[20] = biological target: T20, DYWLQ (5-mer on peptide array)
T20 chain: DYWLQ

[21] = biological target: T21, RYSKY (5-mer on peptide array)
T21 chain: RYSKY

[22] = biological target: T22, Z-[GGGRYSKYGGGG]
T22 chain: GGGRYSKYGGGG

[23] = biological target: T23, YRQTR (5-mer on peptide array)
T23 chain: YRQTR

[24] = biological target: T24, Z-[GGGRYGKSGGGG]
T24 chain: GGGRYGKSGGGG

[25] = biological target: T25, KYRYK (5-mer on peptide array)
T25 chain: KYRYK

[26] = biological target: T26, YKGRG (5-mer on peptide array)
T26 chain: YKGRG

[27] = biological target: T27, RYESK (5-mer on peptide array)
T27 chain: RYESK

[28] = biological target: T28, FRQRQ (5-mer on peptide array)
T28 chain: FRQRQ

[29] = biological target: T29, EYALQ (5-mer on peptide array)
T29 chain: EYALQ

[30] = biological target: T30, ARSKL (5-mer on peptide array)
T30 chain: ARSKL

[31] = biological target: T31, DWVAQ (5-mer on peptide array)
T31 chain: DWVAQ

[32] = biological target: T32, DYFLQ (5-mer on peptide array)
T32 chain: DYFLQ

[33] = biological target: T33, EWVAQ (5-mer on peptide array)
T33 chain: EWVAQ

[34] = biological target: T34, AYRTK (5-mer on peptide array)
T34 chain: AYRTK

[35] = biological target: T35, Z-[GGGFRQRGGGGG]
T35 chain: GGGFRQRGGGGG

[36] = biological target: T36, DYVAQ (5-mer on peptide array)
T36 chain: DYVAQ

[37] = biological target: T37, YKYNK (5-mer on peptide array)
T37 chain: YKYNK

[38] = biological target: T38, VRQRQ (5-mer on peptide array)
T38 chain: VRQRQ

[39] = biological target: T39, PYKYK (5-mer on peptide array)
T39 chain: PYKYK

[40] = biological target: T40, EYVAQ (5-mer on peptide array)
T40 chain: EYVAQ

[41] = biological target: T41, YRQRA (5-mer on peptide array)
T41 chain: YRQRA

[42] = biological target: T42, EYVLQ (5-mer on peptide array)
T42 chain: EYVLQ

[43] = biological target: T43, RYRQR (5-mer on peptide array)
T43 chain: RYRQR

[44] = biological target: T44, YRYRQ (5-mer on peptide array)
T44 chain: YRYRQ

[45] = biological target: T45, YKSWK (5-mer on peptide array)
T45 chain: YKSWK

[46] = biological target: T46, FYESK (5-mer on peptide array)
T46 chain: FYESK

[47] = biological target: T47, LRYRQ (5-mer on peptide array)
T47 chain: LRYRQ

[48] = biological target: T48, Z-[GGGRYSQRGGGG]
T48 chain: GGGRYSQRGGGG

[49] = biological target: T49, FYKYK (5-mer on peptide array)
T49 chain: FYKYK

[50] = biological target: T50, RFYSK (5-mer on peptide array)
T50 chain: RFYSK

[51] = biological target: T51, PRYRQ (5-mer on peptide array)
T51 chain: PRYRQ

B1: Kutzneria albida microbial transglutaminase, activated enzyme (KalbTGt3) (protein)
chain: APLAPPLAEDRSYRTWRVEDYVEAWERYHGREMTEDERENLARGCIGVTVVNLNREDLSNPPLNLSFGSLRTAEAVQAALNKIVDTHPSPAQYEAAVAKDPILKRLKNVVKALPSWIDSAKLKASIFSKRFYSWQNPDWSEERAHTTYRPDRETDQVDMSTYRYRARPGYVNFDYGWFDQDTNTWWHANHEEPRMVVYQSTLRHYSRPLQDFDEQVFTVAFAKKDGGGSGHHHHHHHH
[1]
  5-mer peptide array, incorporation of biotinylated glutamine donor Z-APRYRQRAAGGG-PEG-biotin: the top 17 lysine-donor substrates identified on the 5-mer peptide array with KalbTG
[2]
  Reaction Rate in Solution (pmol s^-1), GLDH-coupled assay with 200 µM glutamine donor: 3.65 pmol/s
[3]
  5-mer peptide array, incorporation of biotinylated amine donor: the top 22 glutamine-donor substrates identified on the 5-mer peptide array with KalbTG
[4]
  5-mer peptide array, incorporation of biotinylated amine donor: the top 22 glutamine-donor substrates identified on the 5-mer peptide array with KalbTG
  Array signal (log2): 8.84 log2
[5]
  peptide array, second round of maturation: A second round of maturation on the peptide array yielded APRYRQRAA (SEQ ID NO:24) as the top performing 9-mer substrate
[6]
  5-mer peptide array, incorporation of biotinylated glutamine donor Z-APRYRQRAAGGG-PEG-biotin: the top 17 lysine-donor substrates identified on the 5-mer peptide array with KalbTG
[7]
  5-mer peptide array, incorporation of biotinylated amine donor: the top 22 glutamine-donor substrates identified on the 5-mer peptide array with KalbTG
  Array signal (log2): 8.82 log2
[8]
  Reaction rate in solution (pmol/s), GLDH-coupled assay: 2.98 pmol/s
[9]
  5-mer peptide array, incorporation of biotinylated amine donor: the top 22 glutamine-donor substrates identified on the 5-mer peptide array with KalbTG
[10]
  5-mer peptide array, incorporation of biotinylated glutamine donor Z-APRYRQRAAGGG-PEG-biotin: the top 17 lysine-donor substrates identified on the 5-mer peptide array with KalbTG
[11]
  5-mer peptide array, incorporation of biotinylated glutamine donor Z-APRYRQRAAGGG-PEG-biotin: the top 17 lysine-donor substrates identified on the 5-mer peptide array with KalbTG
[12]
  5-mer peptide array, incorporation of biotinylated amine donor: the top 22 glutamine-donor substrates identified on the 5-mer peptide array with KalbTG
  Array signal (log2): 8.93 log2
[13]
  Reaction rate in solution (pmol/s), GLDH-coupled assay: 4 pmol/s
[14]
  5-mer peptide array, incorporation of biotinylated glutamine donor Z-APRYRQRAAGGG-PEG-biotin: the top 17 lysine-donor substrates identified on the 5-mer peptide array with KalbTG
[15]
  Reaction rate in solution (pmol/s), GLDH-coupled assay: 1.92 pmol/s
[16]
  labeling with KalbTG K-tag-Cy3 (SDS-PAGE, in-gel fluorescence): showed no incorporation of label when incubated with KalbTG
[17]
  KM: 2150 µM
  Reaction rate in solution (pmol/s), GLDH-coupled assay: 3.52 pmol/s
  Vmax: 73.2 pmol/s
  kcat: 1.92 s⁻¹
  kcat/KM: 890 M⁻¹ s⁻¹
[18]
  Reaction Rate in Solution (pmol s^-1), GLDH-coupled assay with 200 µM glutamine donor: 3.87 pmol/s
[19]
  Reaction rate in solution (pmol/s), GLDH-coupled assay: 3.07 pmol/s
[20]
  5-mer peptide array signal with KalbTG: exhibited relatively lower signal on the KalbTG array
[21]
  5-mer peptide array, incorporation of biotinylated glutamine donor Z-APRYRQRAAGGG-PEG-biotin: the top 17 lysine-donor substrates identified on the 5-mer peptide array with KalbTG
  Array signal (log2): 12.8 log2
[22]
  Reaction Rate in Solution (pmol s^-1), GLDH-coupled assay with 200 µM glutamine donor: 3.89 pmol/s
[23]
  5-mer peptide array, incorporation of biotinylated amine donor: the top 22 glutamine-donor substrates identified on the 5-mer peptide array with KalbTG
[24]
  Reaction Rate in Solution (pmol s^-1), GLDH-coupled assay with 200 µM glutamine donor: 2.66 pmol/s
[25]
  5-mer peptide array, incorporation of biotinylated glutamine donor Z-APRYRQRAAGGG-PEG-biotin: the top 17 lysine-donor substrates identified on the 5-mer peptide array with KalbTG
[26]
  Array signal (log2): 12.2 log2
[27]
  5-mer peptide array, incorporation of biotinylated glutamine donor Z-APRYRQRAAGGG-PEG-biotin: the top 17 lysine-donor substrates identified on the 5-mer peptide array with KalbTG
  Array signal (log2): 12.7 log2
[28]
  5-mer peptide array, incorporation of biotinylated amine donor: the top 22 glutamine-donor substrates identified on the 5-mer peptide array with KalbTG
  Array signal (log2): 8.93 log2
[29]
  5-mer peptide array signal with KalbTG: exhibited relatively lower signal on the KalbTG array
[30]
  Array signal (log2): 12 log2
[31]
  5-mer peptide array signal with KalbTG: exhibited relatively lower signal on the KalbTG array
[32]
  5-mer peptide array signal with KalbTG: exhibited relatively lower signal on the KalbTG array
[33]
  5-mer peptide array signal with KalbTG: exhibited relatively lower signal on the KalbTG array
[34]
  Array signal (log2): 12.6 log2
[35]
  Reaction rate in solution (pmol/s), GLDH-coupled assay: 2.11 pmol/s
[36]
  5-mer peptide array signal with KalbTG: exhibited relatively lower signal on the KalbTG array
[37]
  5-mer peptide array, incorporation of biotinylated glutamine donor Z-APRYRQRAAGGG-PEG-biotin: the top 17 lysine-donor substrates identified on the 5-mer peptide array with KalbTG
[38]
  5-mer peptide array, incorporation of biotinylated amine donor: the top 22 glutamine-donor substrates identified on the 5-mer peptide array with KalbTG
[39]
  5-mer peptide array, incorporation of biotinylated glutamine donor Z-APRYRQRAAGGG-PEG-biotin: the top 17 lysine-donor substrates identified on the 5-mer peptide array with KalbTG
[40]
  5-mer peptide array signal with KalbTG: exhibited relatively lower signal on the KalbTG array
[41]
  5-mer peptide array, incorporation of biotinylated amine donor: the top 22 glutamine-donor substrates identified on the 5-mer peptide array with KalbTG
[42]
  5-mer peptide array signal with KalbTG: exhibited relatively lower signal on the KalbTG array
[43]
  5-mer peptide array, incorporation of biotinylated amine donor: the top 22 glutamine-donor substrates identified on the 5-mer peptide array with KalbTG
  Array signal (log2): 8.96 log2
[44]
  5-mer peptide array, incorporation of biotinylated amine donor: the top 22 glutamine-donor substrates identified on the 5-mer peptide array with KalbTG
  Array signal (log2): 8.99 log2
[45]
  5-mer peptide array, incorporation of biotinylated glutamine donor Z-APRYRQRAAGGG-PEG-biotin: the top 17 lysine-donor substrates identified on the 5-mer peptide array with KalbTG
[46]
  5-mer peptide array, incorporation of biotinylated glutamine donor Z-APRYRQRAAGGG-PEG-biotin: the top 17 lysine-donor substrates identified on the 5-mer peptide array with KalbTG
[47]
  5-mer peptide array, incorporation of biotinylated amine donor: the top 22 glutamine-donor substrates identified on the 5-mer peptide array with KalbTG
[48]
  Reaction rate in solution (pmol/s), GLDH-coupled assay: 3.22 pmol/s
[49]
  5-mer peptide array, incorporation of biotinylated glutamine donor Z-APRYRQRAAGGG-PEG-biotin: the top 17 lysine-donor substrates identified on the 5-mer peptide array with KalbTG
[50]
  5-mer peptide array, incorporation of biotinylated glutamine donor Z-APRYRQRAAGGG-PEG-biotin: the top 17 lysine-donor substrates identified on the 5-mer peptide array with KalbTG
[51]
  5-mer peptide array, incorporation of biotinylated amine donor: the top 22 glutamine-donor substrates identified on the 5-mer peptide array with KalbTG
